Reference: patent US20240132578A1

Experiments:
Experiment in all cases: cell-based or functional assay
[1] = biological target: HIV-1 Env of isolate MGRM-G-006 (subtype G), on pseudovirus (HIV-1)
[2] = biological target: HIV-1 Env of isolate MGRM-C-028 (subtype C) (HIV-1)
[3] = biological target: HIV-1 Env of isolate MGRM-G-017 (subtype G), on pseudovirus (HIV-1)
[4] = biological target: HIV-1 Env of isolate MGRM-C-009 (subtype C) (HIV-1)
[5] = biological target: HIV-1 Env of isolate MGRM-C-004 (subtype C) (HIV-1)
[6] = biological target: HIV-1 Env of isolate MGRM-C-027 (subtype C) (HIV-1)
[7] = biological target: HIV-1 Env of isolate MGRM-C-025 (subtype C) (HIV-1)
[8] = biological target: aMLV envelope, on pseudovirus (negative control)
[9] = biological target: HIV-1 Env of isolate 98IN022 (subtype C) (HIV-1)
[10] = biological target: HIV-1 Env of isolate MGRM-C-017 (subtype C) (HIV-1)
[11] = biological target: HIV-1 Env of isolate MGRM-C-002 (subtype C) (HIV-1)
[12] = biological target: HIV-1 Env of isolate MGRM-C-015 (subtype C) (HIV-1)
[13] = biological target: HIV-1 Env of isolate MGRM-C-010 (subtype C) (HIV-1)
[14] = biological target: HIV-1 Env of isolate MGRM-G-015 (subtype G), on pseudovirus (HIV-1)
[15] = biological target: HIV-1 Env of isolate MGRM-C-022 (subtype C) (HIV-1)
[16] = biological target: HIV-1 Env of isolate MGRM-G-004 (subtype G), on pseudovirus (HIV-1)
[17] = biological target: HIV-1 Env of isolate MGRM-C-007 (subtype C) (HIV-1)
[18] = biological target: HIV-1 Env of isolate MGRM-G-001 (subtype G), on pseudovirus (HIV-1)
[19] = biological target: HIV-1 Env of isolate MGRM-C-026 (subtype C) (HIV-1)
[20] = biological target: HIV-1 Env of isolate MGRM-C-005 (subtype C) (HIV-1)
[21] = biological target: HIV-1 Env of isolate MGRM-C-001 (subtype C) (HIV-1)
[22] = biological target: HIV-1 Env of isolate MGRM-G-016 (subtype G), on pseudovirus (HIV-1)
[23] = biological target: HIV-1 Env of isolate MGRM-G-025 (subtype G), on pseudovirus (HIV-1)
[24] = biological target: HIV-1 Env of isolate MGRM-G-013 (subtype G), on pseudovirus (HIV-1)
[25] = biological target: HIV-1 Env of isolate 97ZA012 (subtype C) (HIV-1)
[26] = biological target: HIV-1 Env of isolate MGRM-C-012 (subtype C) (HIV-1)
[27] = biological target: HIV-1 Env of isolate MGRM-C-014 (subtype C) (HIV-1)
[28] = biological target: HIV-1 Env of isolate MGRM-G-011 (subtype G), on pseudovirus (HIV-1)
[29] = biological target: HIV-1 Env of isolate 93MW959 (subtype C) (HIV-1)
[30] = biological target: HIV-1 Env of isolate MGRM-G-019 (subtype G), on pseudovirus (HIV-1)
[31] = biological target: HIV-1 Env of isolate MGRM-G-027 (subtype G), on pseudovirus (HIV-1)
[32] = biological target: HIV-1 Env of isolate MGRM-G-014 (subtype G), on pseudovirus (HIV-1)
[33] = biological target: HIV-1 Env of isolate MGRM-G-024 (subtype G), on pseudovirus (HIV-1)
[34] = biological target: HIV-1 Env of isolate MGRM-C-024 (subtype C) (HIV-1)
[35] = biological target: HIV-1 Env of isolate MGRM-C-006 (subtype C) (HIV-1)
[36] = biological target: HIV-1 Env of isolate MGRM-C-020 (subtype C) (HIV-1)
[37] = biological target: HIV-1 Env of isolate MGRM-G-028 (subtype G), on pseudovirus (HIV-1)
[38] = biological target: HIV-1 Env of isolate MGRM-C-008 (subtype C) (HIV-1)
[39] = biological target: HIV-1 Env of isolate MGRM-C-023 (subtype C) (HIV-1)
[40] = biological target: HIV-1 Env of isolate MGRM-C-013 (subtype C) (HIV-1)
[41] = biological target: HIV-1 Env of isolate MGRM-C-019 (subtype C) (HIV-1)
[42] = biological target: HIV-1 Env of isolate MGRM-G-009 (subtype G), on pseudovirus (HIV-1)
[43] = biological target: HIV-1 JR-CSF Env D474A (HIV-1 JR-CSF) (UniProt P20871)
[44] = biological target: HIV-1 JR-CSF Env G471A (HIV-1 JR-CSF) (UniProt P20871)

PGT-121 (antibody)
IC50 (µg/mL), neutralization of pseudovirus [1]: > 50 µg/mL
IC50 (µg/mL), pseudovirus neutralization [2]: 0.472 µg/mL
IC50 (µg/mL), neutralization of pseudovirus [3]: 0.004 µg/mL
IC50 (µg/mL), pseudovirus neutralization [4]: > 50 µg/mL
IC50 (µg/mL), pseudovirus neutralization [5]: 0.011 µg/mL
IC50 (µg/mL), pseudovirus neutralization [6]: 0.011 µg/mL
IC50 (µg/mL), pseudovirus neutralization [7]: 46.8 µg/mL
IC50 (µg/mL), neutralization of pseudovirus [8]: > 50 µg/mL
IC50 (µg/mL), pseudovirus neutralization [9]: 0.007 µg/mL
IC50 (µg/mL), pseudovirus neutralization [10]: 0.009 µg/mL
IC50 (µg/mL), pseudovirus neutralization [11]: 0.019 µg/mL
IC50 (µg/mL), pseudovirus neutralization [12]: 25.1 µg/mL
IC50 (µg/mL), pseudovirus neutralization [13]: > 50 µg/mL
IC50 (µg/mL), neutralization of pseudovirus [14]: > 50 µg/mL
IC50 (µg/mL), pseudovirus neutralization [15]: 0.015 µg/mL
IC50 (µg/mL), neutralization of pseudovirus [16]: 0.115 µg/mL
IC50 (µg/mL), pseudovirus neutralization [17]: 0.196 µg/mL
IC50 (µg/mL), neutralization of pseudovirus [18]: 0.004 µg/mL
IC50 (µg/mL), pseudovirus neutralization [19]: 0.002 µg/mL
IC50 (µg/mL), pseudovirus neutralization [20]: 0.015 µg/mL
IC50 (µg/mL), pseudovirus neutralization [21]: 17.5 µg/mL
IC50 (µg/mL), neutralization of pseudovirus [22]: > 50 µg/mL
IC50 (µg/mL), neutralization of pseudovirus [23]: 0.063 µg/mL
IC50 (µg/mL), neutralization of pseudovirus [24]: 3.99 µg/mL
IC50 (µg/mL), pseudovirus neutralization [25]: 0.002 µg/mL
IC50 (µg/mL), pseudovirus neutralization [26]: 0.123 µg/mL
IC50 (µg/mL), pseudovirus neutralization [27]: 26.9 µg/mL
IC50 (µg/mL), neutralization of pseudovirus [28]: 3.17 µg/mL
IC50 (µg/mL), pseudovirus neutralization [29]: 0.013 µg/mL
IC50 (µg/mL), neutralization of pseudovirus [30]: 0.011 µg/mL
IC50 (µg/mL), neutralization of pseudovirus [31]: 0.124 µg/mL
IC50 (µg/mL), neutralization of pseudovirus [32]: 0.009 µg/mL
IC50 (µg/mL), neutralization of pseudovirus [33]: 0.014 µg/mL
IC50 (µg/mL), pseudovirus neutralization [34]: 0.052 µg/mL
IC50 (µg/mL), pseudovirus neutralization [35]: 0.017 µg/mL
IC50 (µg/mL), pseudovirus neutralization [36]: > 50 µg/mL
IC50 (µg/mL), neutralization of pseudovirus [37]: 0.014 µg/mL
IC50 (µg/mL), pseudovirus neutralization [38]: 0.012 µg/mL
IC50 (µg/mL), pseudovirus neutralization [39]: 0.017 µg/mL
IC50 (µg/mL), pseudovirus neutralization [40]: 7.23 µg/mL
IC50 (µg/mL), pseudovirus neutralization [41]: > 50 µg/mL
IC50 (µg/mL), neutralization of pseudovirus [42]: 0.02 µg/mL

PGT-122 (antibody)
IC50 (µg/mL), neutralization of pseudovirus [1]: > 50 µg/mL
IC50 (µg/mL), pseudovirus neutralization [2]: 2.22 µg/mL
IC50 (µg/mL), neutralization of pseudovirus [3]: 0.032 µg/mL
IC50 (µg/mL), pseudovirus neutralization [4]: > 50 µg/mL
IC50 (µg/mL), pseudovirus neutralization [5]: 0.02 µg/mL
IC50 (µg/mL), pseudovirus neutralization [6]: 0.039 µg/mL
IC50 (µg/mL), pseudovirus neutralization [7]: 8.69 µg/mL
IC50 (µg/mL), neutralization of pseudovirus [8]: > 50 µg/mL
Fold IC50 increase relative to wild-type [43]: 1.8 fold
IC50 (µg/mL), pseudovirus neutralization [9]: 0.032 µg/mL
IC50 (µg/mL), pseudovirus neutralization [10]: 0.015 µg/mL
IC50 (µg/mL), pseudovirus neutralization [11]: 0.022 µg/mL
IC50 (µg/mL), pseudovirus neutralization [12]: > 50 µg/mL
IC50 (µg/mL), pseudovirus neutralization [13]: > 50 µg/mL
IC50 (µg/mL), neutralization of pseudovirus [14]: > 50 µg/mL
IC50 (µg/mL), pseudovirus neutralization [15]: 0.012 µg/mL
IC50 (µg/mL), neutralization of pseudovirus [16]: 2.15 µg/mL
IC50 (µg/mL), pseudovirus neutralization [17]: 3.35 µg/mL
IC50 (µg/mL), neutralization of pseudovirus [18]: 0.005 µg/mL
IC50 (µg/mL), pseudovirus neutralization [19]: 0.006 µg/mL
IC50 (µg/mL), pseudovirus neutralization [20]: 0.027 µg/mL
IC50 (µg/mL), pseudovirus neutralization [21]: 19.1 µg/mL
IC50 (µg/mL), neutralization of pseudovirus [22]: > 50 µg/mL
IC50 (µg/mL), neutralization of pseudovirus [23]: 0.079 µg/mL
IC50 (µg/mL), neutralization of pseudovirus [24]: 3.45 µg/mL
IC50 (µg/mL), pseudovirus neutralization [25]: 0.004 µg/mL
IC50 (µg/mL), pseudovirus neutralization [26]: 2 µg/mL
IC50 (µg/mL), pseudovirus neutralization [27]: > 50 µg/mL
IC50 (µg/mL), neutralization of pseudovirus [28]: 31.3 µg/mL
IC50 (µg/mL), pseudovirus neutralization [29]: 0.016 µg/mL
IC50 (µg/mL), neutralization of pseudovirus [30]: 0.016 µg/mL
IC50 (µg/mL), neutralization of pseudovirus [31]: 0.606 µg/mL
IC50 (µg/mL), neutralization of pseudovirus [32]: 0.008 µg/mL
Fold IC50 increase relative to wild-type [44]: 1.8 fold
IC50 (µg/mL), neutralization of pseudovirus [33]: 0.033 µg/mL
IC50 (µg/mL), pseudovirus neutralization [34]: 0.102 µg/mL
IC50 (µg/mL), pseudovirus neutralization [35]: 0.018 µg/mL
IC50 (µg/mL), pseudovirus neutralization [36]: 14 µg/mL
IC50 (µg/mL), neutralization of pseudovirus [37]: 0.01 µg/mL
IC50 (µg/mL), pseudovirus neutralization [38]: 0.028 µg/mL
IC50 (µg/mL), pseudovirus neutralization [39]: 0.027 µg/mL
IC50 (µg/mL), pseudovirus neutralization [40]: 32.6 µg/mL
IC50 (µg/mL), pseudovirus neutralization [41]: > 50 µg/mL
IC50 (µg/mL), neutralization of pseudovirus [42]: 0.514 µg/mL
